# Reference: the nanobody polyreactivity screen of Harvey et al. (2022)
# Assay: yeast display, Sf9 membrane polyspecificity reagent, FACS + sequencing; frameworks hold sequencing errors
# Method in brief: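 A synthetic nanobody library was expressed on Saccharomyces cerevisiae BJ5465 by galactose induction for 36–48 hours. The library was stained for 1 hour at 4 °C with 10% biotinylated, detergent-solubilized Sf9 membrane reagent and enriched with streptavidin microbeads before FACS. Low and high (top ~1%) gates were set on anti-HA fluorescence for expression and streptavidin fluorescence for reagent binding, and each polyreactivity label reflects the gate of origin.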
sequence,measurement,value
QVQLVESGGGLVQAGGSLRLSCAASGRIFSDYAMGWSSQAPGKERELVATITSGDSTNYADSVKGRFTISRDHAKNTVYLQMNSLKPEDTAVYYCNADRFADYDYWGQGTQVTVSS,polyreactivity (PSR sort gate),low polyreactivity
QVQLVDSGGGLVQAGGSLRLSCAASGITFYYYAMGRYIQAPGKERELVAAISWSGGSTYYADSVKGRFTISRDNAKNTVYLPMNSLIPEDTAVYYCAATPYQYHDGGYWGQGTQVTVSS,polyreactivity (PSR sort gate),high polyreactivity
QVQLVESGGGLVQAGGSLRLSCAASGRIFRLYTMGWYRQAPGKERELVAAISSAGSTKYADSVKGRFTISRDNAKNTVYLQMNSLKPEDTAVYYCAAGRYYYRSGFYTPVRYYSWGQGTQVTVSS,polyreactivity (PSR sort gate),high polyreactivity
QVQLVESGGGLVQAGGSLRLSCAASGSTFLYNAMGWYRQAPGKERELVAAISWSGGSTYYADSVKGRFTISRDNAKNTVYLQMNSLKPEDTAVYYCNALSVPDYDYWGQGTQVTVSS,polyreactivity (PSR sort gate),high polyreactivity
QVQLVESGGGLVQAGGSLRLSCAASGRTFPAYAMGWYRQAPGKERELVAAISYSGGRTRYADSVKGRFTISRDNAKNTVYLQMNSLKPEDTAVYYCNRVIPTQSLRDYYWGQGTQVTVSS,polyreactivity (PSR sort gate),high polyreactivity
QVQLVESGGVLVQAGGSLRLSCAASGSIFAGNAMGWYRQEPGKERELVAAISRSGTRTYYADSVKGRFTISRDNAMNTVYLQMNSLKPEDTAVYYFAAYLPYRQGRYGYEYWGQGTQVTVSS,polyreactivity (PSR sort gate),high polyreactivity
QVQLVESGGGLVQARGSLRLSCAASGSIFDFYAMGWYRQAPGKERELVAAISGSGGSTYYADSVKARFTISRDNAKNNGYLQMISLKPDDTAVYYCSYYYWGQGTQVTVSS,polyreactivity (PSR sort gate),low polyreactivity
QVQLVESGGGLVQAGGSLRLSCAASGSTLAIYAKGWYRQAPGKERELVAAISGGGSTYADSVKGRFTISRDNAKNTVYLQMNSLKPEDTAVYYCNADGWGDRFWSNFRFDYWGQGTQVTVSS,polyreactivity (PSR sort gate),low polyreactivity
QVQLVESGGALVQAGGSLRLSCAASGIIFGGYALGWYRQEPGKERELVAAISCGGSTNYADSVKGRFTISRDNAKNTVYLQMNSLKPEDTSVYYCAADSASSYSYNYWGQGSQVTVSS,polyreactivity (PSR sort gate),low polyreactivity
QVQLVQSGGGLVQAGGSLRLSCAASGRTFPIYAMGWYRQAPWKERELVAAITRGGRTNYADSVMGRFTISRDNAKNTVYLQMNSLKPEDTAVYYCDARTYGTYLYAEYDYWGQCTQVTVSS,polyreactivity (PSR sort gate),high polyreactivity
QVQLVESGGGLVQAGGSLRLSCAASGRIFNAYATGWYRKAPGKERELVAAISSIGGRTYYADSVKGRFTISRDNAKNTVYLQMNSLKPEETAVYYCAARRRSRQYRYDYWGQGTQVTVSS,polyreactivity (PSR sort gate),high polyreactivity
QVQLEESGGGLVQAGGSLRLSCAASGSTFSRYAMGWYRQAPGKERELVAAISSSGGGTYYADSVKGRFTISRDNAKNTVYLQMNSLKPEDTAVYYCAAKRVHGATGYWGQGTQVTVSS,polyreactivity (PSR sort gate),high polyreactivity
QVQLVESGGGLVQAGGSLRLSCAASGSTFPDNAMGWYRQAPGKERELVAAISFSSGSTYYADSVKGRFTISRDNAKNTVYLQMNSLKPEDTAVYYCAVANPSPYEWIAYYYWGQGTQVTVSS,polyreactivity (PSR sort gate),low polyreactivity
QVQLVESGGGLVQAGCSLRLSCAASGFTFGRNAMGWYRQAPGKEREFVADISGSVGSTYYADSVKGRFTISRDNAKNTVYLQMNSLKPEDTAVYYCAADTLYPRWEFDYWGQGTQVTVSS,polyreactivity (PSR sort gate),high polyreactivity
QVQLVESGGGLVQAGGSLRLSCAASGSILDPYAMGWYRQAPGKERELVADISSGASTNYADSVKGRFTISRDNAKNTVYLQMNSLKPEDTAVYYCAAVYVEYSEYRYIVELYYWGQGTQVTVSS,polyreactivity (PSR sort gate),low polyreactivity
QVQLVESGGGLVQAGGSLRLSCAASGYTFKAYAMGWYRQAPGKERELVAAISWSGARTYYADSVKGRFTISRDNAKNTVYLQMNSLKPEDTAVYYCAASNAVYAGRSYRDEFWGQGTQVTVSS,polyreactivity (PSR sort gate),high polyreactivity
QVQLVESGGGLDQAGGSLRLSCAASGRIGYYAMGWYRQAPGKETELVAAISYGGGSTYYADSVKGRFTISRDNAKNTVYLQLNSLKPEDTAVYYCAARWGKSWRGYGYWGQGTLVTVSS,polyreactivity (PSR sort gate),high polyreactivity
